# T1: human IL-12Rβ2 (human, UniProt Q99665 24-862)
# T1 construct: Expressed on HEK293T cells transiently transfected with a pcDNA3 plasmid (Genscript clone OHu21785); also called hIL-12RB2; IL-12 receptor β2 subunit
# T1 sequence: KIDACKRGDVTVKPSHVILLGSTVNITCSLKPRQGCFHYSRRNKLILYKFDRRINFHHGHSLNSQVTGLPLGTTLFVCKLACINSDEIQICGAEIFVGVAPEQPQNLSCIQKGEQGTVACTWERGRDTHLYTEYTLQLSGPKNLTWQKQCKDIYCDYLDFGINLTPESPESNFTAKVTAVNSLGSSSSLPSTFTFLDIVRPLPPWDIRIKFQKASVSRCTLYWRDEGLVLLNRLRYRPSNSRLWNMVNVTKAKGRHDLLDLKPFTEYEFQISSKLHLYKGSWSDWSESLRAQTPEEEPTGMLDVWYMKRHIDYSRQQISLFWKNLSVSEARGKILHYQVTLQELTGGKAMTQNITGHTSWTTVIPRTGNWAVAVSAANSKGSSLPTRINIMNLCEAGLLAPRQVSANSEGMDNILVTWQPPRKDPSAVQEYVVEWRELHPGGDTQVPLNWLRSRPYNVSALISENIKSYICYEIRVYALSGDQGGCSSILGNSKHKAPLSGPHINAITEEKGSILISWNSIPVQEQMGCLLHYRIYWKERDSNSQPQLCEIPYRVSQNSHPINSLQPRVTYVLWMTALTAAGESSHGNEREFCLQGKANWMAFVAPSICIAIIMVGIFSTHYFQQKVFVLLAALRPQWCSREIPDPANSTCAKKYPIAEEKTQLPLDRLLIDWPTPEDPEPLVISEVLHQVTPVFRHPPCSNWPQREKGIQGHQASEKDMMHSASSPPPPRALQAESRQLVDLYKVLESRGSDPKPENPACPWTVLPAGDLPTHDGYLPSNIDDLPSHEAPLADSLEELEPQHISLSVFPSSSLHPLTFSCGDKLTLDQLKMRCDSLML
# Biological target: T1, human IL-12Rβ2
# Assay: flow cytometry, P.E. on transfected HEK293T cells
Binder,% cells bound,dMFI
"anti-IL-12Rβ2 VHH clone 3CRHS9 (VHH, not shown: small tags and cut ends, periplasmic extract) VHH: QVQLQESGGGLVQPGGSLRLSCTASGSIVSIYNMDWYRQAPGNEREWVASITSSGDPYYDGSAKGRFTISRDNAKMTVYLQMNSLKPEDTAVYYCKVPTEKGNYWGQGTQVTVSS",42.1%,1040
"anti-IL-12Rβ2 VHH clone 3CRH18 (VHH, not shown: small tags and cut ends, periplasmic extract) VHH: QVQLQESGGGLVQPGGSLRLSCTASGNIVSIYNMDWYRQAPGNQREWVASITSSGDPYYDGSAKGRFTISRDNAKMTVYLQMNSLRPEDTAVYYCKVPTEKGNYWGQGTQVTVSS",41.7%,918
"anti-IL-12Rβ2 VHH clone 3CRHS3 (VHH, not shown: small tags and cut ends, periplasmic extract) VHH: QVQLQESGGGLVQPGGSLRLSCTASGSIFSIYNMDWYRQAPGNQREWVASITSSGDPYYDASVKGRFTISRDSAKMTVYLQMNSLKPEDTAVYYCKLPTEKGNYWGQGTQVTVSS",47.2%,1320
"anti-IL-12Rβ2 VHH clone 3CRHS55 (VHH, not shown: small tags and cut ends, periplasmic extract) VHH: QVQLQESGGGLVQAGGSLNLSCTASGSIISIYNMDWYRQAPGNQREWVASITSNGDSYYDGSAKGRFTISRDNAKMTVYLQMNSLKPEDTAVYYCKVPTENGNYWGQGTQVTVSS",40.5%,961
"anti-IL-12Rβ2 VHH clone 3CRH27 (VHH, not shown: small tags and cut ends, periplasmic extract) VHH: QVQLQESGGGLVQAGGSLRLSCTASGSIVSIYNMDWYRQAPGNEREWVASITSSGDPYYDGSAKGRFTISRDNAKMTVYLQMNSLKPEDTAVYYCKVPTEKGNYWGQGTQVTVSS",38.9%,812
"anti-IL-12Rβ2 VHH clone 3CRHS148 (VHH, not shown: small tags and cut ends, periplasmic extract) VHH: QVQLQESGGGLVQPGGSLRLSCIASGSIFSIYNMDWYRQAPGNQREWVASITPSGDPYYDDSAKGRFTISRDNAKMTVYLQMNSLKPEDTAVYYCKVPTEKGNYWGQGTQVTVSS",42%,1030
"anti-IL-12Rβ2 VHH clone 3CRHS54 (VHH, not shown: small tags and cut ends, periplasmic extract) VHH: QVQLQESGGGLVQPGGSLRLSCTASGSIVSIYNMDWYRQAPGNEREWVASITSSGDPYYDGSAKGRFTISRDNAKMTVYLQMNSLEPEDTAVYFCKVPTEKGNYWGQGTQVTVSS",41.5%,970
"anti-IL-12Rβ2 VHH clone 3CRHS100 (VHH, not shown: small tags and cut ends, periplasmic extract) VHH: QVQLQESGGGLVQPGGSLRLSCTASGSIFSIYNMDWYRQAPGNQREWVASITPSGDPYYDDSAKGRFTISRDNAKMTVYLQMNSLKPEDTAVYYCKVPTEKGNYWGQGTQVTVSS",43.2%,1130
"anti-IL-12Rβ2 VHH clone 3CRH68 (VHH, not shown: small tags and cut ends, periplasmic extract) VHH: QVQLQESGGGLVQPGGSLRLSCTASGSILSIYNMDWYRQVPGNQREWVASITPSGDPYYDGSVKGRFTISRDNAKMMVYLQMNSLKPEDTAVYYCKVPTEKGNYWGQGTQVTVSS",38.2%,787
"anti-IL-12Rβ2 VHH clone 2CRH33 (VHH, not shown: small tags and cut ends, periplasmic extract; also called 20363) VHH: QVQLQESGGGSVQPGWSLRLTCAASGFTFSTSGMHWFRQAPGKGLEWVSSISSGGGDTYYTDSVKGRITISRDNAKNTLYLQLNDLKSEDTAVYYCSKDPSGATRGQGTQVTVSS",44.8%,1120
"anti-IL-12Rβ2 VHH clone 2CRH60 (VHH, not shown: small tags and cut ends, periplasmic extract) VHH: QVQLQESGGGSVQPGGSLRLTCAASGFTFSTSGMHWFRQAPGKGLEWVSSISSGGGDTYYTDSVKGRITISRDNAKNTLYLQLNDLKSEDTAVYYCSKDPSGATRGQGTQVTVSS",45.3%,1100
"anti-IL-12Rβ2 VHH clone 3CRH17 (VHH, not shown: small tags and cut ends, periplasmic extract) VHH: QVQLQESGGGLVQAGGSLVLSCAASGSAALIFLMSWYRQAPGKQRELVAEVSRYGSTTYADSVEGRFTISRDNAKNIVDLQMNSLKPEDTAVYYCKADQYYGDSLRSSWGRGTQVTVSS",32.5%,583
"anti-IL-12Rβ2 VHH clone 2CRH53 (VHH, not shown: small tags and cut ends, periplasmic extract) VHH: QVQLQESGGGLVQAGGSLVLSCAASGSAALIFLMSWYRQAPGKQRELVAEVSRYGSTTYADSVEGRFTISRDNAKDIVDLQMNSLKPEDTAVYYCKADQYYGDSLRSSWGRGTQVTVSS",35.3%,686
"anti-IL-12Rβ2 VHH clone 3CRH38 (VHH, not shown: small tags and cut ends, periplasmic extract) VHH: QVQLQESGGGLVQAGGSLVLSCAASGSAALIFLMSWYRQAPGKQRELVAEVSRGGSTTYADSVEGRFTISRDNAKNIVDLQMNSLKPEDTAVYYCKADQNYGDSLRSSWGRGTQVTVSS",31.8%,537
"anti-IL-12Rβ2 VHH clone 2CRH10 (VHH, not shown: small tags and cut ends, periplasmic extract; also called 20362) VHH: QVQLQESGGGLVQAGGSLVLSCAASGSAALIFLMSWYRQAPGKQRELVAEVSRGGSTTYADSVEGRFHISRDNAKNIVDLQMNSLKPEDTAVYYCKADQNYGDSLRSSWGRGTQVTVSS",30.8%,595
"anti-IL-12Rβ2 VHH clone 2CRH73 (VHH, not shown: small tags and cut ends, periplasmic extract) VHH: QVQLQESGGGLVQAGGSLRLTCTASGSAALIFLMSWYRQAPGKQRELVAEVSRRGSTTYADSVEGRFTISRDNAKNIVDLQMNSLKPEDTAVYYCKADQYYGDSLRSSWGRGTQVTVSS",36.7%,707
"anti-IL-12Rβ2 VHH clone 3CRHS2 (VHH, not shown: small tags and cut ends, periplasmic extract) VHH: QVQLQESGGGLVQLGGSLTLSCAASGSAALIFLMSWYRQAPGKQRELVAEVSRYGSTTYADSVEGRFTISRDNAKNIVDLQMNSLKPEDTAVYYCKADQYYGDSLRSSWGRGTQVTVSS",44.5%,1150
"anti-IL-12Rβ2 VHH clone 3CRHS184 (VHH, not shown: small tags and cut ends, periplasmic extract) VHH: QVQLQESGGGLVQAGGSLVLSCAASGSAALIFLMSWYRQAPGKQRELVAEVSRYGSTTYADSVEGRFTISRDNAKNIVDLQMNSLKPEDTAVYYCKADQYYGDSLRSSWGRGTQLTVSS",33.3%,625
"anti-IL-12Rβ2 VHH clone 3CRH5 (VHH, not shown: small tags and cut ends, periplasmic extract) VHH: QVQLQESGGGLVQAGGSLVLSCAASGSAALIFLMSWYRQAPGKQRELVAEVSRGGSTTYADSVEGRFTISRDNAKNIVDLQMNSLKPEDTAVYYCKADQNYGDSLRSSWGQGTQVTVSS",39.5%,835
"anti-IL-12Rβ2 VHH clone 3CRH67 (VHH, not shown: small tags and cut ends, periplasmic extract) VHH: QVQLQESGGGLVQAGGSLVLSCAASGSAALIFLMSWYRQAPGKQRELVAEVSRYGSTTYADSVEGRFTISRDNAKNIVDLQMNSLKPEDTAAYYCKADQYYGDSLRSSWGRGTQVTVSS",35.1%,645
"anti-IL-12Rβ2 VHH clone 3CRHS1 (VHH, not shown: small tags and cut ends, periplasmic extract) VHH: QVQLQESGGGSVQPGGSLRLSCAASGFTFSTSGMHWFRQAPGKGLEWVSSIGIIVDSSYYASSVKGRFTISRDNAKNTLYLQMNSLKSEDTAVYYCSKDPTGSSRGQGTQVTVSS",44.5%,1080
"anti-IL-12Rβ2 VHH clone 3CRHS109 (VHH, not shown: small tags and cut ends, periplasmic extract) VHH: QVQLQESGGGLVQPGGSLRLSCAASGFTFSTSGMHWFRQAPGKGLEWVSSIGIIVDSSYYASSVKGRFTISRDNAKNTLYLHMNSLKSEDTAVYYCSKDVTGSSRGQGTQVTVSS",46.5%,1260
"anti-IL-12Rβ2 VHH clone 3CRH43 (VHH, not shown: small tags and cut ends, periplasmic extract) VHH: QVQLQESGGGSVQPGGSLRLSCAASGFTFSTSGMHWFRQAPGKGLEWVSSIGIIVDSSYYASSVKGRFTISRDNAKNIVYLQMNSLKSEDTAVYYCSKDPTGSSRGQGTQVTVSS",45.5%,1160
"anti-IL-12Rβ2 VHH clone 3CRHS128 (VHH, not shown: small tags and cut ends, periplasmic extract) VHH: QVQLQESGGGLVQPGGSLRLSCAASGFTFSTSGMHWFRQAPGKGLEWVSSIGATVDNSYYASSVKGRFTISRDNAKNTLYLLMNSLKSEDTAVYYCSKDPTGSSRGQGTQVTVSS",50.5%,1480
"anti-IL-12Rβ2 VHH clone 3CRH45 (VHH, not shown: small tags and cut ends, periplasmic extract) VHH: QVQLQESGGGLVQPGGSLRLSCAASGFTFSTFGMHWFRQAPGKGLEWVSSIGIIDDNSYYASSVKGRFTISRDNAKNTLYLQMNSLKSEDTAVYYCSKDTTGSSRGQGTQVTVSS",37.6%,742
"anti-IL-12Rβ2 VHH clone 3CRH14 (VHH, not shown: small tags and cut ends, periplasmic extract) VHH: QVQLQESGGGLVQPGGSLRLSCAASGFTFSTSGMHWFRQAPGKGLEWVSSIGIIVDSSYYADSVKGRFTISRDNAKNTLFLQMNSLKSEDTAVYYCSKDPTGSSRGQGTQVTVSS",41.7%,864
"anti-IL-12Rβ2 VHH clone 2CRH80 (VHH, not shown: small tags and cut ends, periplasmic extract) VHH: QVQLQESGGGLVQPGGSLRLSCAASGFTFSTSGMHWFRQAPGKGLEWVSSIGIIVGSSYYASSVKGRFTISRDNAKNTLYLHMNSLKSEDTAVYYCSKDVTGSSRGQGTQVTVSS",40.1%,809
